Consider 38 molecules from US20260242478A1 (published 2026).

The target in assay [1] is T1, Anti-CD28 Fab (SEQ ID NOs: 696, 697).
T1 construct: Biotinylated and captured on neutravidin coated plates in the phage ELISA
The assay is described as follows: phage binding ELISA on captured anti-CD28 Fab; competitor CD28 antigen.

Assay [2] shares this target. The assay is described as follows: phage binding ELISA; biotinylated anti-CD28 Fab on neutravidin plate, anti-M13 HRP detection.
For another assay, the target named is anti-CD28 Fab. Description: competition ELISA, peptide titrated 0-100 uM against 1 nM anti-CD28 Fab, plate-bound CD28 as competitor.
The target in assay [3] is Ab-15. The assay is described as follows: binding ELISA: biotinylated peptide on neutravidin plate, Ab-15 titrated.
The target in assay [4] is Ab-15. The assay is described as follows: BLI (Octet): sensor loaded with 200 nM biotinylated peptide, 100 nM Ab-15.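 Further: binding association and dissociation tracked in real time, fitted to a 1:1 binding model.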
For assay [5], the target named is Ab-15. The assay is described as follows: competition ELISA: peptide titrated against 1 nM Ab-15; competitor plate-bound CD28.

Where no end group is shown, it is not given here.

B1: Phage-454 (peptide)
peptide: YWSCFQIPFTCFYF
notes: Clonal phage supernatant; also called Peptide-75; not shown: fused to the pIII filament protein of the bacteriophage
Take B1: in assay [1], the “Anti-CD28 Fab signal in the presence of CD28” value (from here on “Anti-CD28 Fab signal”) came to 0.27. In assay [2], the “Anti-CD28 Fab (SEQ ID NOs: 696, 697) signal” value was 1.44.

B2: Peptide-137 (peptide)
peptide: TCSAGATWPWPICL
Consider B2, for which the IC50 in the assay with anti-CD28 Fab came to 0.89 µM.

B3: Peptide-68 (peptide)
peptide: YDWCPRDLWVHCFA
modifications: cysteine pairing not given here; also: biotinylated, site not given here
notes: CD28 peptide mask
In the assay with Ab-15 [3], B3 yielded an EC50 of 0.0322 µM. In the assay with Ab-15 [4], the Octet signal turned out to be 0.849 and the t1/2 stood at 2.9 min. This molecule also came in with a concentration for half-maximal inhibition (IC50) with Ab-15 [5] of 3.25 µM.

B4: Peptide-69 (peptide)
peptide: VDWCPRDLWVHCFA
modifications: cysteine pairing not given here; also: biotinylated, site not given here
notes: CD28 peptide mask
B4 gave an EC50 in the assay with Ab-15 [3] of 0.0325 µM. In the assay with Ab-15 [4], this molecule gave an Octet signal of 0.919 and a t1/2 of 2.9 min. The same molecule registered an IC50 with Ab-15 [5] of 4.42 µM.

B5: Peptide-139 (peptide)
peptide: TCSAGASYPWPLCL
Regarding B5, in the assay with anti-CD28 Fab, the IC50 is 2.19 µM.

B6: Peptide-145 (peptide)
peptide: TCSAGAAYPWPLCL
B6 yielded an IC50 in the assay with anti-CD28 Fab of 7.7 µM.

B7: Phage-460 (peptide)
peptide: WCWDYKLWVPTQCP
modifications: cysteine pairing not given here; also: displayed as fusion to phage pIII, linker and pIII sequence not given here
notes: Clonal phage supernatant; also called Peptide-81; not shown: fused to the pIII filament protein of the bacteriophage
Turning to B7, the “Anti-CD28 Fab signal” value in assay [1] stood at 0.14. Moreover, the “Anti-CD28 Fab (SEQ ID NOs: 696, 697) signal” value in assay [2] was 2.27.

B8: Phage-463 (peptide)
peptide: YCAGHSPINIGKCL
modifications: cysteine pairing not given here; also: displayed as fusion to phage pIII, linker and pIII sequence not given here
notes: Clonal phage supernatant; also called Peptide-84; not shown: fused to the pIII filament protein of the bacteriophage
With B8, the “Anti-CD28 Fab signal” value in assay [1] was determined as 0.06. The “Anti-CD28 Fab (SEQ ID NOs: 696, 697) signal” value in assay [2] came out at 1.49.

B9: Peptide-143 (peptide)
peptide: TCAAGAAWGWPLCF
Turning to B9, in the assay with anti-CD28 Fab, the IC50 turned out to be 2.56 µM.

B10: Peptide-153 (peptide)
peptide: TCAAGATYLWPTCL
As to B10, in the assay with anti-CD28 Fab, the concentration for half-maximal inhibition (IC50) came out at 8.42 µM.

B11: Phage-468 (peptide)
peptide: YWYCSPSIVRCVLV
notes: Clonal phage supernatant; also called Peptide-89; not shown: fused to the pIII filament protein of the bacteriophage
On to B11, for which the “Anti-CD28 Fab signal” value in assay [1] worked out at 0.09. For the same molecule, in assay [2], the “Anti-CD28 Fab (SEQ ID NOs: 696, 697) signal” value turned out to be 1.51.

B12: Peptide-152 (peptide)
peptide: TCSAGATWAWPLCF
Consider B12, for which the IC50 with anti-CD28 Fab came out at 2.22 µM.

B13: Phage-472 (peptide)
peptide: DCPWLSGFSRPLLC
notes: Clonal phage supernatant; also called Peptide-93; not shown: fused to the pIII filament protein of the bacteriophage
Turning to B13, the “Anti-CD28 Fab signal” value in assay [1] worked out at 0.07. Moreover, the “Anti-CD28 Fab (SEQ ID NOs: 696, 697) signal” value in assay [2] was 1.27.

B14: Peptide-150 (peptide)
peptide: TCSAGAHYPWPICL
B14 yielded an IC50 in the assay with anti-CD28 Fab of 4.76 µM.

B15: Phage-471 (peptide)
peptide: SCAAGASYAWPYCL
notes: Clonal phage supernatant; also called Peptide-92; not shown: fused to the pIII filament protein of the bacteriophage
In the case of B15, the “Anti-CD28 Fab signal” value in assay [1] was 0.05. Further, the “Anti-CD28 Fab (SEQ ID NOs: 696, 697) signal” value in assay [2] stood at 1.49.

B16: Peptide-151 (peptide)
peptide: SCSAGAAYYWPWCL
B16 registered a half-maximal inhibitory concentration (IC50) with anti-CD28 Fab of 80.5 µM.

B17: Phage-456 (peptide)
peptide: FMCLPQNPHPLCFK
notes: Clonal phage supernatant; also called Peptide-77; not shown: fused to the pIII filament protein of the bacteriophage
As for B17, in assay [1], the “Anti-CD28 Fab signal” value was found to be 0.06. Besides, the “Anti-CD28 Fab (SEQ ID NOs: 696, 697) signal” value in assay [2] was found to be 0.84.

B18: Phage-461 (peptide)
peptide: WCWDYREWVPMTCP
modifications: cysteine pairing not given here; also: displayed as fusion to phage pIII, linker and pIII sequence not given here
notes: Clonal phage supernatant; also called Peptide-82; not shown: fused to the pIII filament protein of the bacteriophage
Consider B18, for which the “Anti-CD28 Fab signal” value in assay [1] amounted to 0.08. For the same molecule, the “Anti-CD28 Fab (SEQ ID NOs: 696, 697) signal” value in assay [2] was determined as 2.3.

B19: Phage-467 (peptide)
peptide: WCWYYREWVPMTCP
modifications: cysteine pairing not given here; also: displayed as fusion to phage pIII, linker and pIII sequence not given here
notes: Clonal phage supernatant; also called Peptide-88; not shown: fused to the pIII filament protein of the bacteriophage
As for B19, in assay [1], the “Anti-CD28 Fab signal” value came to 0.07. The “Anti-CD28 Fab (SEQ ID NOs: 696, 697) signal” value in assay [2] is 1.85.

B20: Phage-459 (peptide)
peptide: GCQYPWAFDAMSCP
modifications: cysteine pairing not given here; also: displayed as fusion to phage pIII, linker and pIII sequence not given here
notes: Clonal phage supernatant; also called Peptide-80; not shown: fused to the pIII filament protein of the bacteriophage
Turning to B20, the “Anti-CD28 Fab signal” value in assay [1] was 0.07. For the same molecule, in assay [2], the “Anti-CD28 Fab (SEQ ID NOs: 696, 697) signal” value was 2.38.

B21: Phage-458 (peptide)
peptide: ACDTYFAGMINECF
modifications: cysteine pairing not given here; also: displayed as fusion to phage pIII, linker and pIII sequence not given here
notes: Clonal phage supernatant; also called Peptide-79; not shown: fused to the pIII filament protein of the bacteriophage
For the molecule B21, the “Anti-CD28 Fab signal” value in assay [1] worked out at 0.1. The “Anti-CD28 Fab (SEQ ID NOs: 696, 697) signal” value in assay [2] amounted to 0.92.

B22: Peptide-141 (peptide)
peptide: TCSAGATYTWPKCF
The molecule B22 gave a concentration for half-maximal inhibition (IC50) in the assay with anti-CD28 Fab of 2.22 µM.

B23: Phage-470 (peptide)
peptide: WICDKSGSIMLCRA
notes: Clonal phage supernatant; also called Peptide-91; not shown: fused to the pIII filament protein of the bacteriophage
Take B23: the “Anti-CD28 Fab signal” value in assay [1] stood at 0.06. In assay [2], the “Anti-CD28 Fab (SEQ ID NOs: 696, 697) signal” value was 0.91.

B24: Peptide-154 (peptide)
peptide: TCAAGAHYPWPACL
In the case of B24, the IC50 with anti-CD28 Fab is 2.2 µM.

B25: Peptide-148 (peptide)
peptide: SCSAGAHYPWPQCF
B25 gave a concentration for half-maximal inhibition (IC50) with anti-CD28 Fab of 5.67 µM.

B26: Phage-465 (peptide)
peptide: DCWWMFESYPGRCI
modifications: cysteine pairing not given here; also: displayed as fusion to phage pIII, linker and pIII sequence not given here
notes: Clonal phage supernatant; also called Peptide-86; not shown: fused to the pIII filament protein of the bacteriophage
For the molecule B26, in assay [1], the “Anti-CD28 Fab signal” value came to 0.07. The “Anti-CD28 Fab (SEQ ID NOs: 696, 697) signal” value in assay [2] stood at 1.65.

B27: Peptide-144 (peptide)
peptide: LCAAGATYPWPLCL
In the case of B27, the IC50 with anti-CD28 Fab was 3.04 µM.

B28: Peptide-147 (peptide)
peptide: LCAAGATYPWPTCL
As for B28, the IC50 with anti-CD28 Fab is 8.15 µM.

B29: Peptide-142 (peptide)
peptide: TCAAGATWSWPACF
Take B29: in the assay with anti-CD28 Fab, the IC50 amounted to 0.62 µM.

B30: Phage-466 (peptide)
peptide: YCAGHAWQYINKCL
modifications: cysteine pairing not given here; also: displayed as fusion to phage pIII, linker and pIII sequence not given here
notes: Clonal phage supernatant; also called Peptide-87; not shown: fused to the pIII filament protein of the bacteriophage
As for B30, in assay [1], the “Anti-CD28 Fab signal” value is 0.07. In addition, the “Anti-CD28 Fab (SEQ ID NOs: 696, 697) signal” value in assay [2] stood at 0.64.

B31: Peptide-138 (peptide)
peptide: LCAAGASWPWPVCL
In the assay with anti-CD28 Fab, B31 registered an IC50 of 3.61 µM.

B32: Phage-464 (peptide)
peptide: WCWDYKLWVPMTCP
modifications: cysteine pairing not given here; also: displayed as fusion to phage pIII, linker and pIII sequence not given here
notes: Clonal phage supernatant; also called Peptide-85; not shown: fused to the pIII filament protein of the bacteriophage
Consider B32, for which, in assay [1], the “Anti-CD28 Fab signal” value came out at 0.11. In assay [2], the “Anti-CD28 Fab (SEQ ID NOs: 696, 697) signal” value was 2.51.

B33: Phage-455 (peptide)
peptide: WECLKYTEANACTY
notes: Clonal phage supernatant; also called Peptide-76; not shown: fused to the pIII filament protein of the bacteriophage
As to B33, the “Anti-CD28 Fab signal” value in assay [1] worked out at 0.07. For the same molecule, in assay [2], the “Anti-CD28 Fab (SEQ ID NOs: 696, 697) signal” value came to 1.55.

B34: Phage-457 (peptide)
peptide: PDCQTILFKPWCVR
modifications: cysteine pairing not given here; also: displayed as fusion to phage pIII, linker and pIII sequence not given here
notes: Clonal phage supernatant; also called Peptide-78; not shown: fused to the pIII filament protein of the bacteriophage
Turning to B34, in assay [1], the “Anti-CD28 Fab signal” value is 0.06. Also, the “Anti-CD28 Fab (SEQ ID NOs: 696, 697) signal” value in assay [2] stood at 2.09.

B35: Peptide-140 (peptide)
peptide: TCAAGAAWPWPQCL
As for B35, the IC50 in the assay with anti-CD28 Fab was determined as 0.76 µM.

B36: Phage-462 (peptide)
peptide: ECHWSMWAVGHACF
modifications: cysteine pairing not given here; also: displayed as fusion to phage pIII, linker and pIII sequence not given here
notes: Clonal phage supernatant; also called Peptide-83; not shown: fused to the pIII filament protein of the bacteriophage
For B36, in assay [1], the “Anti-CD28 Fab signal” value came to 0.07. Besides, the “Anti-CD28 Fab (SEQ ID NOs: 696, 697) signal” value in assay [2] worked out at 1.77.

B37: Peptide-146 (peptide)
peptide: TCSAGAAYSWPACF
As to B37, the IC50 in the assay with anti-CD28 Fab is 16.1 µM.

B38: Peptide-149 (peptide)
peptide: TCSAGATYEWPRCL
As for B38, the IC50 in the assay with anti-CD28 Fab is 2.66 µM.
